# Results: article PMC6050581 (ACS infectious diseases, 2018)
# B1: W1S4 peptide (human CD11a-based) (peptide)
# peptide: Ac-TGHCLP-NH2
# B2: W2S4 peptide (human CD11a-based) (peptide)
# peptide: Ac-YLSGLCYLFRQNLQGPML-NH2
# B3: W2S2 peptide (human CD11a-based) (peptide)
# peptide: Ac-TDGSILACDPG-NH2
# B4: W2S1 peptide (human CD11a-based) (peptide)
# peptide: Ac-VTLRGSNYTSKYLGMTLATDP-NH2
# B5: W2S3 peptide (human CD11a-based; identical in murine CD11a) (peptide)
# peptide: Ac-LSRTCDQNT-NH2
# B6: leukotoxin (LtxA) of Aggregatibacter actinomycetemcomitans (natural protein)
# chain: MATTTLPNTKQQAAQFANSVADRAKENIDAAKEQLQKALDKLGKTGKKLTLYIPKNYKKGNGLTALIKAAQKLGIEVYHEGKDGPALTNGILNTGKKLLGLTERGLTLFAPELDKWIQGNKHLSNSVGSTGNLTKAIDKVQSVLGTLQAFLNTAFSGMDLDALIKARQNGKNVTDVQLAKASLNLINELIGTISSITNNVDTFSKQLNKLGEALGQVKHFGSFGDKLKNLPKLGNLGKGLGALSGVLSAISAALLLANKDADTATKAAAAAELTNKVLGNIGKAITQYLIAQRAAAGLSTTGPVAGLIASVVSLAISPLSFLGIAKQFDRARMLEEYSKRFKKFGYNGDSLLGQFYKNTGIADAAITTINTVLSAIAAGVGAASAGSLVGAPIGLLVSAITSLISGILDASKQAVFEHIANQLADKIKAWENKYGKNYFENGYDARHSAFLEDSLKLFNELREKYKTENILSITQQGWDQRIGELAGITRNGDRIQSGKAYVDYLKKGEELAKHSDKFTKQILDPIKGNIDLSGIKGSTTLTFLNPLLTAGKEERKTRQSGKYEFITELKVKGRTDWKVKGVPNSNGVYDFSNLIQHAVTRDNKVLEARLIANLGAKDDYVFVGSGSTIVNAGDGYDVVDYSKGRTGALTIDGRNATKAGQYKVERDLSGTQVLQETVSKQETKRGKVTDLLEYRNYKLDYYYTNKGFKAHDELNSVEEIIGSTLRDKFYGSKFNDVFHGHDGDDLIYGYDGDDRLYGDNGNDEIHGGQGNDKLYGGAGNDRLFGEYGNNYLDGGEGDDHLEGGNGSDILRGGSGNDKLFGNQGDDLLDGGEGDDQLAGGEGNDIYVYRKEYGHHTITEHSGDKDKLSLANINLKDVSFERNGNDLLLKTNNRTAVTFKGWFSKPNSSAGLDEYQRKLLEYAPEKDRARLKRQFELQRGKVDKSLNNKVEEIIGKDGERITSQDIDNLFDKSGNKKTISPQELAGLIKNKGKSSSLMSSSRSSSMLTQKSGLSNDISRIISATSGFGSSGKALSASPLQTNNNFNSYANSLATTA
# Target: B6
# Experiment: SPR
row,Binder,Kd
1,B1,~10 nM
2,B2,~10 nM
3,B3,~10 nM
4,B4,~10 nM
5,B5,~10 nM

# Target: B2
# Experiment: SPR
row,Binder,KD relative to the KD of LtxA for the other peptides
1,B6,~2 fold
